The values below come from patent US20210324063A1 (KODIAK SCIENCES, published 2021).

The target of one assay is T1, Purified human C1q (human, UniProt P02745 23-245; P02746 28-253; P02747 29-245).
T1 construct: also called human complement protein C1q
Description: ELISA: antibody coated on the plate in 1:2 titration, purified human C1q at 5 ug/mL, HRP anti-human C1q detection. Here is the method:
Complement engagement liabilities were assessed by C1q ELISA binding. The antibody panel was titrated 1:2 from a top concentration of 10 ug/mL in 1×PBS for overnight coating at 4 C. Plates were then blocked After a 2 hour blocking step in 1% BSA. Purified human C1q was then applied at 5 ug/mL in 1% BSA for 2 hours at room temperature followed by detection with HRP-conjugated anti-human C1q antibody and TMB development.

Another assay has as its target T2, Histidine-tagged FcγRI (UniProt P12314 16-288, limits assumed).
T2 construct: also called Fc gamma receptor I; not shown: histidine tag
Nature of the assay: SPR (BIAcore T200), his-tagged receptor captured by anti-his antibody on a CM5 chip, antibody as analyte, single-cycle kinetics, 25 C. Here is the method: (§1) Binding kinetics experiments were performed at 25° C. using a BIAcore T200. An anti-his antibody was immobilized on a CM5 chip. Histidine-tagged FcγRI and FcγRIIIa at a concentration of 0.5 μg/mL prepared in HBS-EP buffer (0.01M HEPES pH7.4, 0.15M NaCl, 3 mM EDTA, 0.005% Tween-20) were injected independently for 60-s using a flow rate of 5 μL/min in the active flow cell only. […] Antibody concentrations in the range of 0.48 to 300 nM were used for FcγRI and 7.8 nM to 2000 nM for FcγRIIIa. Following each run, flow cells were regenerated with a 60 s injection of 10 mM glycine pH 1.7 using a flow-rate of […]. Data was double referenced, using subtraction of both reference flow cell and blank cycles. Analysis was performed using BIA evaluation software.

The target in assay [1] is T3, Histidine-tagged FcγRIIIa (UniProt P08637 17-208, limits assumed).
T3 construct: also called Fc gamma receptor IIIa; not shown: histidine tag
Described as above. The protocol: as §1

T1 sequence (P02745 23-245 limits assumed, chain 1 of 3): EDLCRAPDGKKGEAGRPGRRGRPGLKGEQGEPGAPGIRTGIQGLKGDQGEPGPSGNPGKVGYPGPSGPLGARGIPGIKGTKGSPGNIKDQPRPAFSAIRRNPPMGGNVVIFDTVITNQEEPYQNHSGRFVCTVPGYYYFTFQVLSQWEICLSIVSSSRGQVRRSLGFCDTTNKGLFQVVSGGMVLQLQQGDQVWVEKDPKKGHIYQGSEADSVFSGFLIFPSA
T1 sequence (P02746 28-253 limits assumed, chain 2 of 3): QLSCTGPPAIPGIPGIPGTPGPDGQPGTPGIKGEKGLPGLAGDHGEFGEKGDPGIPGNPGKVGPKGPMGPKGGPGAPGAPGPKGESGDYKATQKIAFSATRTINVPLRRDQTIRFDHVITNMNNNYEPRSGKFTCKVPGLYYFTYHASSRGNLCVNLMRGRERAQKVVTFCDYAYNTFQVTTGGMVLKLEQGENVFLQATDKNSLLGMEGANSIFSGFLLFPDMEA
T1 sequence (P02747 29-245 limits assumed, chain 3 of 3): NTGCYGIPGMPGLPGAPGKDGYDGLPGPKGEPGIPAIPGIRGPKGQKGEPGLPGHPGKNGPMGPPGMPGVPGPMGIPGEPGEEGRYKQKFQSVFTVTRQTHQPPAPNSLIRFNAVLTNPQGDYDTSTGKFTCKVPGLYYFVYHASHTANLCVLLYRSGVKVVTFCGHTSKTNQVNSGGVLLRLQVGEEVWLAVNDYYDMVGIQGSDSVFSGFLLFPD
T3 sequence (P08637 17-208 limits assumed): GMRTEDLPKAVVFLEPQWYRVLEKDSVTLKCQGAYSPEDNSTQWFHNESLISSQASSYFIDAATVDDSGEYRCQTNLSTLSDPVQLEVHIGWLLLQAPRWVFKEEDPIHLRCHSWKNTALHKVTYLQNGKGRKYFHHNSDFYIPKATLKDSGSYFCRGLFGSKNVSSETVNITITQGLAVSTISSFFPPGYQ
T2 sequence (P12314 16-288 limits assumed): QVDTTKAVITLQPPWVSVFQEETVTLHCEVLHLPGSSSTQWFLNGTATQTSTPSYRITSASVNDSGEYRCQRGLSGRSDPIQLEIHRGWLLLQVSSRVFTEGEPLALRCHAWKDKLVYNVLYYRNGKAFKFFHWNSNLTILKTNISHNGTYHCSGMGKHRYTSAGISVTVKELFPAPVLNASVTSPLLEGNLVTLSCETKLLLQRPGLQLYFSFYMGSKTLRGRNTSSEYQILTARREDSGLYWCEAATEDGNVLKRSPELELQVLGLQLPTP

B1: OG1950 (antibody, IgG1)
heavy: EVQLVESGGGLVQPGGSLRLSCAASGYDFTHYGMNWVRQAPGKGLEWVGWINTYTGEPTYAADFKRRFTFSLDTSKSTAYLQMNSLRAEDTAVYYCAKYPYYYGTSHWYFDVWGQGTLVTVSSASTKGPSVFPLAPSSKSTSGGTAALGCLVKDYFPEPVTVSWNSGALTSGVHTFPAVLQSSGLYSLSSVVTVPSSSLGTQTYICNVNHKPSNTKVDKKVEPKSCDKTHTCPPCPAPEAAGAPSVFLFPPKPKDTLMISRTPEVTCVVVDVSHEDPEVKFNWYVDGVEVHNAKTKPREEQYNSTYRVVSVLTVLHQDWLNGKEYKCKVSNKALPAPIEKTISKAKGQPREPQVYTLPPSREEMTKNQVSLTCLVKGFYPSDIAVEWESNGQPENNYKTTPPVLDSDGSFFLYSKLTVDKSRWQQGNVFSCSVMHEALHNHYTQKSLSCSPGK
light: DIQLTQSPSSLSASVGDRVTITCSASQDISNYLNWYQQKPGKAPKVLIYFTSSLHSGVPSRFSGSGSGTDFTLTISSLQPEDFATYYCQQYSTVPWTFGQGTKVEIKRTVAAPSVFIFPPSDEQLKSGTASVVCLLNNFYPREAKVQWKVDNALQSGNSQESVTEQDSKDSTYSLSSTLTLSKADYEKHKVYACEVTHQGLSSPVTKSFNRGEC
notes: also called anti-VEGF-A antibody with an L443C (EU numbering) mutation; unconjugated antibody
As for B1, the values for the binding result (with Purified human C1q; in the assay with Histidine-tagged FcγRI; in assay [1]) were “binds”, “no binding (tested: 0.48 to 300 nM)” and “no binding (tested: 7.8 nM to 2000 nM)”, respectively.

B2: Avastin (bevacizumab) (antibody, human IgG1, kappa)
heavy: not shown
light: not shown
notes: Commercial product
Regarding B2, the binding result in the assay with Purified human C1q is listed as “binds”.
